# Experiments:
# S. pyogenes β = experiment: Binding of rhodamine-labeled polymerase C-terminal peptides to β clamp; design: species or system Streptococcus pyogenes; conditions: β titrated in
# Method: This assay has also been examined using Streptococcus pyogenes β and rhodamine labeled peptides corresponding to C-terminal residues of Streptococcus pyogenes Pol C and E. coli Pol III. […] The C-terminal peptide corresponding to Staphylococcus aureus Pol C was also tested for binding to these β clamps (FIG. 1C).
# E. coli β clamp = E. coli β clamp (Escherichia coli, UniProt P0A988); conditions: E. coli β labeled with Oregon Green or rhodamine-labeled peptide; Kd only in FIG. 1A
# Sequence of E. coli β clamp (P0A988 whole entry): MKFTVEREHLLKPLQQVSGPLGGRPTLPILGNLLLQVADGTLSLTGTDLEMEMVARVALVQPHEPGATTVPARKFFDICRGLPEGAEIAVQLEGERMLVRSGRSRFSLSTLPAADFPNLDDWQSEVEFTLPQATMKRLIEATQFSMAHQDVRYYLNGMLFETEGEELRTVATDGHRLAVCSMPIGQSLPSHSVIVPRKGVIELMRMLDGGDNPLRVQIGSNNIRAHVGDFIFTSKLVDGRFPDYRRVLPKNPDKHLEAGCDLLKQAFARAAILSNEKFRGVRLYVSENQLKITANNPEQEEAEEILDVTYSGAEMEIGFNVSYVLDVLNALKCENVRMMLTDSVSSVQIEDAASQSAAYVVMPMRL
# Excerpt: The assays corresponding to the data in the Table of FIG. 1A, use E. coli β labeled with an Oregon Green fluorophore. Peptides of various polymerases were titrated into the labeled β, and the Kd values were obtained from the resulting fluorescent intensity changes. All other plots utilize rhodamine-labeled polymerase peptide from E. coli α (FIG. 1A), S. pyogenes Pol C (FIG. 1B), S. aureus Pol C (FIG. 1C). β clamp from the organisms indicated are titrated into the fluorescent peptide.
# A rhodamine-labeled 20 mer peptide corresponds to the sequence of the C-terminal 20 residues of E. coli Pol III α subunit. […] A plot of the fluorescence change with beta concentration provides a Kd value for the interaction between these molecules (FIG. 1A).
# [1] = molecular target: E. coli DNA polymerase III replicase (Escherichia coli, UniProt P0A988); conditions: primed M13mp18 ssDNA coated with SSB
# Sequence of E. coli DNA polymerase III replicase (P0A988 whole entry): as above
# Method: Assays were performed using primed M13mp18 ssDNA coated with SSB as substrate. Each reaction was 25 μl and contained 72 ng primed M13mp18 ssDNA, 1 μg SSB, 0.1 mM MgCl2, 20 mM TrisHCl (pH 7.5), 0.1 mM EDTA, 5 mM DTT, 40 μg/ml BSA, 4% glycerol, […], 2 mM ATP, 60 μM each of dCTP, dATP, dGTP and 20 μM α^32-P dTTP. Replicases consisted of the following for each E. coli, S. pyogenes, and S. aureus: 50 ng Pol III core (E. coli) or Pol C (S. pyogenes and S. aureus), 200 ng τ, 20 ng δδ′ and 40 ng β. Peptides, when present, were added to the indicated concentration. Reactions were assembled on ice in the absence of the polymerase, then shifted to 37° C. for 3 min before initiating synthesis by addition of the polymerase. Reactions were incubated a further 3 min prior to quenching and quantitation of synthesis.
# [2] = molecular target: T1, S. aureus Pol C holoenzyme (Staphylococcus aureus, UniProt P0A024); experiment: Replicase DNA synthesis assay on primed M13mp18 ssDNA, with peptides; format: biochemical; conditions: primed M13mp18 ssDNA coated with SSB
# T1 construct: made in house
# T1 sequence (P0A024 1-377): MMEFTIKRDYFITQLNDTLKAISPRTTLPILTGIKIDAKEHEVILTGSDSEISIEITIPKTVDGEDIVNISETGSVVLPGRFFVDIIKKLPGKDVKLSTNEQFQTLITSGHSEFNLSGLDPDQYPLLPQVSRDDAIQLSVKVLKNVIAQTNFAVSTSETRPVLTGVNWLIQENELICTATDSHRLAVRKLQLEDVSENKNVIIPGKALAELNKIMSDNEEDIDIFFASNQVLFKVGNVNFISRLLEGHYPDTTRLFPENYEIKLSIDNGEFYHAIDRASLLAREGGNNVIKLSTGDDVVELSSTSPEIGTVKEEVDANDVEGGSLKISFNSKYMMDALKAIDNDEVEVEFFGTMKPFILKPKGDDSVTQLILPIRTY
# Method: (§1) Peptides, when present, were added to the indicated concentration.
# [3] = tested on: S. pyogenes PolC holoenzyme; experiment: as above; format: biochemical, Streptococcus pyogenes; conditions: primed M13mp18 ssDNA coated with SSB
# Method: as §1
Substance,binding of peptide to S. pyogenes β (S. pyogenes β),binding of peptide to E. coli β clamp (E. coli β clamp),inhibition of DNA synthesis by E. coli DNA polymerase III replicase [1],inhibition of DNA synthesis by S. aureus Pol C holoenzyme [2],inhibition of DNA synthesis by S. pyogenes PolC holoenzyme [3]
S. aureus Pol C peptide: C-terminal peptide of Staphylococcus aureus Pol C; DELGSLPNLPDKAQLSIFDM (SEQ ID NO: 13) (listed as Staphylococcus aureus),bound,binds,inhibit DNA synthesis,inhibit DNA synthesis,inhibit DNA synthesis
S. pyogenes Pol C peptide: C-terminal residues of Streptococcus pyogenes Pol C; DEMGILGNMPEDNQLSLFDDFF (SEQ ID NO: 15) (Streptococcus pyogenes),bound,binds,inhibit DNA synthesis,inhibit DNA synthesis,inhibit DNA synthesis

# From US20090004675A1, “Method of Identifying Compounds for Bacterial Growth Modulation” (priority 2004, published 2009)
